# In patent US20190269750A1, “PHARMACEUTICAL COMPOSITION AND METHOD OF TREATING FEMALE SEXUAL DYSFUNCTIONS” ("IVIX" Ltd., priority 2016, published 2019):
# No end group written: not given here.
# Experiment: Distribution of tritium-labelled pentapeptide after intranasal administration
# Assay type: in vivo
# Settings: rats, tritium label
# Description: The study to determine how the medication of the invention is distributed through the body and reaches the brain was conducted on rats. Specially prepared rats were intranasally administered the pharmaceutical composition containing the pentapeptide of the invention radioactively-labelled with tritium. The animals were then euthanized at certain time intervals to be able to assess the biodistribution of the peptide in the brain and its transportation path.
substance,measurement,value
"pentapeptide of the invention radioactively-labelled with tritium: pentapeptide Thr-Lys-Pro-Arg-Pro (SEQ ID NO: 5) labelled with tritium, given intranasally in a pharmaceutical composition (TKPRP; also: tritium label, position not given here)",biodistribution: delivery to the brain,a significant part of the medication reached the brain undegraded
same,biodistribution: site of detection,detected in the olfactory bulbs and other parts of the brain
